B1: Azoarcus group I ribozyme (parent)
chain: GUGCCUUGCGCCGGGAAACCACGCAAGGGAUGGUGUCAAAUUCGGCGAAACCUAAGCGCCCGCCCGGGCGUAUGGCAACGCCGAGCCAAGCUUCGGCGCCUGCGCCGAUGAAGGUGUAGAGACUAGACGGCACCCACCUAAGGCAAACGCUAUGGUGAAGGCAUAGUCCAGGGAGUGGCGAAAGUCACACAAACCGG

Variants of B1 are the subject of the data set. The data set can be described thus: reverse-splicing fitness (ratio to wild type); higher = more active; in vitro selection; Mg2+ level not given. The procedure, abridged: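 An in vitro group I ribozyme library with randomized positions was T7-transcribed and gel-purified. In triplicate, 10 pmol RNA in EPPS pH 7.5 was reacted with 50 pmoles of a 30-nt RNA substrate for 1 h at 37 °C across several added MgCl2 levels (1–48 mM), then stopped with EDTA. Products were reverse transcribed from a substrate-complementary primer, PCR-amplified and sequenced (HiSeq 4000). Fitness is a variant's read proportion after selection over that before, normalised to wild type.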
Turning to GUGCCUUGCGCCGGGAAACCACGCAAGGGAUGGUGUCAAAUUCGGCGAAACCUAAGCGCCCGCCCGGGCGUAUGGCAACGCGGAGCCAAGCUUCGGCGCCUGCGCCGAUGGAGGUGUAGGGACUAGACGGCACCCACCUAAGGCAAACGCUAUGGUGAAGGCAUAGUCCAGGGAGUGGCGAAAGUCACACAAACCGG [C82G A111G A120G], the reverse-splicing fitness came out at 0.0208.
On to GUGCCUUGCGCCGGGAAACCACGCAAGGGAUGGUGUCAAAUUCGGCGAAACCUAAGCGCCCGCCCGGGCGUAUGGCAACGCGGAGCCAAGCUUCGGCGCCUGCGCCGAUGGAGGUGUAGCGACUAGACGGCACCCACCUAAGGCAAACGUUAUGGUGAAGGCAUAGUCUAGGGAGUGGCGAAAGUCACACAAACCGG [C82G A111G A120C C150U C169U], for which the reverse-splicing fitness came to 0.0144.
The value for GUGCCUUGCGCCGGGAAACCACGCAAGGGAUGGUGUCAAAUUCGGCGAAACCUAAGCGCCCGCCCGGGCGUAUGGCAACGCGGAGCCAAGCUUCGGCGCCUGCGCCGAUGGAGGUGUAGCGACUAGACGGCACCCACCUAAGGCAAACGUUAUGGUGAAGGCAUAGUCUAGGGAGCGGCGAAAGUCACACAAACCGG [C82G A111G A120C C150U C169U U176C] was 0.017; that for GUGCCUUGCGCCGGGAAACCACGCAAGGGAUGGUGUCAAAUUCGGCGAAACCUAAGCGCCCGCCCGGGCGUAUGGCAACGCGGAGCCAAGCUUCGGCGCCUGCGCCGAUGGAGGUGUAGCGACUAGACGGCACCCACCUAAGGCAAACGUUAUGGUGAAGGCAUAGUCUAGGGAGAGGCGAAAGUCACACAAACCGG [C82G A111G A120C C150U C169U U176A] was 0.0166.
Consider GUGCCUUGCGCCGGGAAACCACGCAAGGGAUGGUGUCAAAUUCGGCGAAACCUAAGCGCCCGCCCGGGCGUAUGGCAACGCGGAGCCAAGCUUCGGCGCCUGCGCCGAUGGAGGUGUAGCGACUAGACGGCACCCACCUAAGGCAAACGUUAUGGUGAAGGCAUAGUCUAGGGAGGGGCGAAAGUCACACAAACCGG [C82G A111G A120C C150U C169U U176G], for which the reverse-splicing fitness was 0.00815.
The value for GUGCCUUGCGCCGGGAAACCACGCAAGGGAUGGUGUCAAAUUCGGCGAAACCUAAGCGCCCGCCCGGGCGUAUGGCAACGCGGAGCCAAGCUUCGGCGCCUGCGCCGAUGGAGGUGUAGCGACUAGACGGCACCCACCUAAGGCAAACGUUAUGGUGAAGGCAUAGUCCAGGGAGAGGCGAAAGUCACACAAACCGG [C82G A111G A120C C150U U176A] was 0.0201; that for GUGCCUUGCGCCGGGAAACCACGCAAGGGAUGGUGUCAAAUUCGGCGAAACCUAAGCGCCCGCCCGGGCGUAUGGCAACGCGGAGCCAAGCUUCGGCGCCUGCGCCGAUGGAGGUGUAGCGACUAGACGGCACCCACCUAAGGCAAACGUUAUGGUGAAGGCAUAGUCCAGGGAGGGGCGAAAGUCACACAAACCGG [C82G A111G A120C C150U U176G] was 0.0127; that for GUGCCUUGCGCCGGGAAACCACGCAAGGGAUGGUGUCAAAUUCGGCGAAACCUAAGCGCCCGCCCGGGCGUAUGGCAACGCGGAGCCAAGCUUCGGCGCCUGCGCCGAUGGAGGUGUAGCGACUAGACGGCACCCACCUAAGGCAAACGUUAUGGUGAAGGCAUAGUCCAGGGAGCGGCGAAAGUCACACAAACCGG [C82G A111G A120C C150U U176C] was 0.0344.
For GUGCCUUGCGCCGGGAAACCACGCAAGGGAUGGUGUCAAAUUCGGCGAAACCUAAGCGCCCGCCCGGGCGUAUGGCAACGCGGAGCCAAGCUUCGGCGCCUGCGCCGAUGGAGGUGUAGGGACUAGACGGCACCCACCUAAGGCCAACGAUAUGGUGAAGGCAUAGUCCAGGGAGUGGCGAAAGUCACACAAACCGG [C82G A111G A120G A145C C150A], the reverse-splicing fitness turned out to be 0.00699.
The value for GUGCCUUGCGCCGGGAAACCACGCAAGGGAUGGUGUCAAAUUCGGCGAAACCUAAGCGCCCGCCCGGGCGUAUGGCAACGCGGAGCCAAGCUUCGGCGCCUGCGCCGAUGGAGGUGUAGCGACUAGACGGCACCCACCUAAGGCAAACGCUAUGGUGAAGGCAUAGUCGAGGGAGAGGCGAAAGUCACACAAACCGG [C82G A111G A120C C169G U176A] was 0.0164; that for GUGCCUUGCGCCGGGAAACCACGCAAGGGAUGGUGUCAAAUUCGGCGAAACCUAAGCGCCCGCCCGGGCGUAUGGCAACGCGGAGCCAAGCUUCGGCGCCUGCGCCGAUGGAGGUGUAGCGACUAGACGGCACCCACCUAAGGCAAACGCUAUGGUGAAGGCAUAGUCGAGGGAGCGGCGAAAGUCACACAAACCGG [C82G A111G A120C C169G U176C] was 0.0193; that for GUGCCUUGCGCCGGGAAACCACGCAAGGGAUGGUGUCAAAUUCGGCGAAACCUAAGCGCCCGCCCGGGCGUAUGGCAACGCGGAGCCAAGCUUCGGCGCCUGCGCCGAUGGAGGUGUAGCGACUAGACGGCACCCACCUAAGGCAAACGCUAUGGUGAAGGCAUAGUCGAGGGAGGGGCGAAAGUCACACAAACCGG [C82G A111G A120C C169G U176G] was 0.00531.
The value for GUGCCUUGCGCCGGGAAACCACGCAAGGGAUGGUGUCAAAUUCGGCGAAACCUAAGCGCCCGCCCGGGCGUAUGGCAACGCGGAGCCAAGCUUCGGCGCCUGCGCCGAUGGAGGUGUAGCGACUAGACGGCACCCACCUAAGGCAAACGCUAUGGUGAAGGCAUAGUCUAGGGAGAGGCGAAAGUCACACAAACCGG [C82G A111G A120C C169U U176A] was 0.0138; that for GUGCCUUGCGCCGGGAAACCACGCAAGGGAUGGUGUCAAAUUCGGCGAAACCUAAGCGCCCGCCCGGGCGUAUGGCAACGCGGAGCCAAGCUUCGGCGCCUGCGCCGAUGGAGGUGUAGCGACUAGACGGCACCCACCUAAGGCAAACGCUAUGGUGAAGGCAUAGUCUAGGGAGCGGCGAAAGUCACACAAACCGG [C82G A111G A120C C169U U176C] was 0.0134.
The value for GUGCCUUGCGCCGGGAAACCACGCAAGGGAUGGUGUCAAAUUCGGCGAAACCUAAGCGCCCGCCCGGGCGUAUGGCAACGCGGAGCCAAGCUUCGGCGCCUGCGCCGAUGGAGGUGUAGCGACUAGACGGCACCCACCUAAGGCAAACGCUAUGGUGAAGGCAUAGUCUAGGGAGGGGCGAAAGUCACACAAACCGG [C82G A111G A120C C169U U176G] was 0.00596.

The record behind these values is the RNAGym collection of RNA variant scans (doi:10.1093/molbev/msab373).
